Here are results for one molecule from patent US20080293923A1 (Genentech, published 2008).

The target of the test is T1, hepatocyte growth factor beta chain (HGF β) containing a Cys604 to Ser mutation (human, UniProt P14210 495-728).
T1 construct: Expressed in insect cells (baculovirus secretion vector pAcGP67), Val495 placed immediately after the secretion signal; Numbering follows full length HGF starting with MWV as 1-3; also called HGF β-chain; HGF-beta
Put plainly: complex formation in solution, size exclusion chromatography. As to the method: Elution fractions were assayed with SDS-PAGE, and those containing the complex were pooled. […] For this, Met, previously purified using Nickel chromatography as described above, was mixed with a combination of PNGase F (Roche) and Endoglycosidase A (Roche) at 1:100 enzyme:Met concentration and incubated at room temperature for 3 hours.
In general terms: SEC sorts molecules by how far they enter the pores of the column.

T1 sequence (P14210 other isoform, or with tags, fused parts or gaps limits assumed): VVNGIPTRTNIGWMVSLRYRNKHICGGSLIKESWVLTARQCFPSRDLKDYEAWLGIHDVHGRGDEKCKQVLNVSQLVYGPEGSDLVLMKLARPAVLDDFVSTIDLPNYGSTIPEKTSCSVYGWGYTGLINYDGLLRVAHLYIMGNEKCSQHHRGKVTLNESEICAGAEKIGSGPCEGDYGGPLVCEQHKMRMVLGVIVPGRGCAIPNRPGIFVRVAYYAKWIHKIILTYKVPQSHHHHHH

B1: extracellular fragment of the Met receptor containing residues 25 to 567 (Sema and PSI domain) with thrombin cleavable site and C-terminal (His)8-tag (receptor)
chain: ECKEALAKSEMNVNMKYQLPNFTAETPIQNVILHEHHIFLGATNYIYVLNEEDLQKVAEYKTGPVLEHPDCFPCQDCSSKANLSGGVWKDNINMALVVDTYYDDQLISCGSVNRGTCQRHVFPHNHTADIQSEVHCIFSPQIEEPSQCPDCVVSALGAKVLSSVKDRFINFFVGNTINSSYFPDHPLHSISVRRLKETKDGFMFLTDQSYIDVLPEFRDSYPIKYVHAFESNNFIYFLTVQRETLDAQTFHTRIIRFCSINSGLHSYMEMPLECILTELVPRGSTKKEVFNILQAAYVSKPGAQLARQIGASLNDDILFGVFAQSKPDSAEPMDRSAMCAFPIKYVNDFFNKIVNKNNVRCLQHFYGPNHEHCFNRTLLRNSSGCEARRDEYRTEFTTALQRVDLFMGQFSEVLLTSISTFIKGDLTIANLGTSEGRFMQVVVSRSGPSTPHVNFLLDSHPVSPEVIVEHTLNQNGYTLVITGKKITKIPLNGLGCRHFQSCSQCLSAPPFVQCGWCHDKCVRSEECLSGTWTQQICLPAIYKHHHHHHHH
notes: Expressed in insect cells (pAcGP67A); The complex was obtained with the unprocessed, single chain Met (not cut by thrombin); For better diffraction Met was deglycosylated with PNGase F and Endoglycosidase A before complex formation; also called Met fragment; Met Sema domain
B1: the binding result is on record as “binds”.
